{"source": "paper PMC12155429", "about": "“PTPA Governs Stress-Responsive Differentiation and Metabolic Homeostasis in Toxoplasma gondii” (Cells, 2025)", "binders": {"B1": {"name": "pMAL–PP2AC–HA (Toxoplasma gondii PP2A C subunit) (enzyme, UniProt A0A125YNB3 1-347, looked up)", "chain": "MSGATPGAVAALQPASAAPALFTIPADVAPSDLPDHYLGQEELRGIDKQMEKLFKCEKLDEEEVRSLCAVLKDILVQEANVQPVRTPVTVVGDIHGQFHDLLEIFKCAGTCPSVNFLFLGDYVDRGLNSVESVSLVFLLKVRYRHRVTLIRGNHESRQITQVYGFYDECLRKYGNANVWNYFTDVFDYLPLSALIEDQIFCPHAGLSPTIETLDHVRLLERFQEVPHEGPMCDLLWSDPEEQMPGWGMSPRGAGYTFGQDISEKFNHVNGLKLIARAHQLIMEGFQWSQANNVVTIFSAPNYCYRCGNQAAIMKIDEHMNYTFIQFNPSLLQASGADMQKRIPDYFL", "notes": "PP2A C subunit of Toxoplasma gondii (TGME49_224220), amplified from Toxoplasma cDNA; printed length 347 aa, ~80 kDa with the pMAL tag; also called PP2A catalytic (C) subunit; source: E. coli, purified (MBPSep Dextrin Agarose Resin, eluted with 10 mM maltose); not shown: MBP (from the vector pMAL)"}}, "target": "T1, pMAL–PP2AA–His (Toxoplasma gondii PP2A A subunit) (Toxoplasma gondii, UniProt S8EX93 1-766)", "T1 construct": "PP2A A subunit of Toxoplasma gondii (TGME49_315670), amplified from Toxoplasma cDNA; printed length 766 aa, ~130 kDa with the pMAL tag; also called PP2A scaffold (A) subunit; source: E. coli, purified (MBPSep Dextrin Agarose Resin, eluted with 10 mM maltose); not shown: MBP (from the vector pMAL)", "T1 sequence (looked up)": "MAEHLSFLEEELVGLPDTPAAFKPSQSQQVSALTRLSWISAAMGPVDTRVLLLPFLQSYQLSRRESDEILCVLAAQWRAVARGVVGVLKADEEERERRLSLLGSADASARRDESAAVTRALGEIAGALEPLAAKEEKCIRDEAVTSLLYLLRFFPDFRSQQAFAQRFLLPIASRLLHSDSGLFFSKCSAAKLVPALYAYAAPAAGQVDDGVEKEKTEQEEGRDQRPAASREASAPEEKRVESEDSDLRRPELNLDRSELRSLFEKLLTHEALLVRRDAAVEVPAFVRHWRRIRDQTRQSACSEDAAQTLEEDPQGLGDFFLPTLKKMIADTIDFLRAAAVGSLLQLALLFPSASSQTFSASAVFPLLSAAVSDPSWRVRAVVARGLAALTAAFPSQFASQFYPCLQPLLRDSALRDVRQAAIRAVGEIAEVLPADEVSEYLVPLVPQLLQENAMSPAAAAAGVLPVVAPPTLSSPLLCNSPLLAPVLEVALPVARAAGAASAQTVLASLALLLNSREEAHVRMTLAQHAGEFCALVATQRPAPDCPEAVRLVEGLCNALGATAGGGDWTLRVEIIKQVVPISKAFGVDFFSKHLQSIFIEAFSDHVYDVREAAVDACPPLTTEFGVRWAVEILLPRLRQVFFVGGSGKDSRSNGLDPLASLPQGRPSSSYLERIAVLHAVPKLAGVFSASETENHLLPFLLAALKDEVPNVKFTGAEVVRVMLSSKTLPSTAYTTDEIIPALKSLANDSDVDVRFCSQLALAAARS", "assay": "pull-down; anti-His or anti-HA magnetic beads washed with TBS, incubated with the tagged protein 5 h at 4 °C, then with the target protein 5 h; washed, eluted, Western blot", "details": "both partners purified"}
{"binder": "B1", "values": [{"measurement": "binding result", "result": "binds"}]}
